Columns and labels:
mRobo3 FN1-3 = molecular target: T1, mRobo3 FN1-3 (mouse, biotin on the Avi-tag (BirA) for SPR); experiment: SPR; biotinylated mRobo3 FN1-3 on a Biacore SA chip; mNELL2 EGF1-6 WT and mutants as analytes over the same channel; 20 s 10 mM EDTA pH 8, 150 mM NaCl between runs; 25 °C, 10 mM HEPES pH 7.2, 150 mM NaCl, 0.05% Tween-20, 0.1% BSA; equilibrium, 1:1 Langmuir; settings: both partners purified
T1 construct: also called Robo3FN1-3 (Polyhedrin, mouse); source: High Five cells (baculovirus), purified (Ni-NTA, SEC); biotinylated with BirA for SPR; not shown: His6, C-terminal, kept

[1] = molecular target: the molecule itself; experiment: SEC-MALS; Wyatt HELEOS II coupled to an AKTA FPLC, Superose Increase 6 10/300, HBS; Zimm model
[2] = molecular target: T2, hRobo3 FN1-3, biotinylated (wild type) (human, UniProt Q96MS0 549-870, biotin on the Avi-tag (BirA)); experiment: SPR; as a6 but with additional 10 mM EDTA in all buffers; settings: both partners purified
T2 construct: human Robo3, FN domains 1-3, P549-L870; also called WT hRobo3 FN; Robo3FN1-3 WT; source: High Five cells (baculovirus), purified (Ni-NTA, SEC), biotinylated with BirA
T2 sequence (looked up): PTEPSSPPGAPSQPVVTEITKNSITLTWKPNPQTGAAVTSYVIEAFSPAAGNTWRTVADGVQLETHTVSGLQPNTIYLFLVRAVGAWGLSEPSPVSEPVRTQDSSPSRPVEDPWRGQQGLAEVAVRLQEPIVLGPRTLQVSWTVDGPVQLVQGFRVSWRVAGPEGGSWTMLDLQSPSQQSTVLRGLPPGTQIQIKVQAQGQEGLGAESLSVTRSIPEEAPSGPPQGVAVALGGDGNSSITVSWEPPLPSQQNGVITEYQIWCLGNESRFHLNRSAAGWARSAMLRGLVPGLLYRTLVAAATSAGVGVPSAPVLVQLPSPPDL

[3] = molecular target: T2, hRobo3 FN1-3, biotinylated (wild type); experiment: SPR; biotinylated hRobo3 FN1-3 on an SA chip, Biacore 3000; hNELL1 EGF1-3 or hNELL2 EGF1-3 as analyte; equilibrium isotherms; settings: both partners purified
[4] = molecular target: the molecule itself; experiment: SEC-SAXS; Superose 6 Increase 10/300 in HBS at APS BioCAT beamline 18; molecular weight from the scattering
[5] = molecular target: the molecule itself; experiment: AUC; sedimentation velocity, concentration series (mRobo3 0.6-20 µM at 200,000 g; mRobo1 0.9-9.8 µM at 140,000 g), 20 °C, c(s) analysis
[6] = molecular target: T2, hRobo3 FN1-3, biotinylated (wild type); experiment: SPR; biotinylated hRobo3 FN1-3 on an NLC/neutravidin chip, ProteOn XPR36; hNELL2 EGF1-6 as analyte; 25 °C, 10 mM HEPES pH 7.2, 150 mM NaCl, 0.05% Tween-20, 0.1% BSA; equilibrium responses, 1:1 Langmuir; settings: both partners purified

B1: mNELL2 EGF1-6 D477A/Y478A (domain or fragment)
chain: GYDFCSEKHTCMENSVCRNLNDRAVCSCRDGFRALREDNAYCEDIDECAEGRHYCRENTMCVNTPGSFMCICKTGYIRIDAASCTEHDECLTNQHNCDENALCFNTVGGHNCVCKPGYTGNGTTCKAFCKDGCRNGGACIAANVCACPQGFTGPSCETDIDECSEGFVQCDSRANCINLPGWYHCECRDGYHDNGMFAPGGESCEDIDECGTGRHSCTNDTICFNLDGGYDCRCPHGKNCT
mRobo3 FN1-3
  Kd: ≥ 100 µM

B2: mouse NELL1 (ligand, UniProt Q2VWQ2 22-810, looked up)
chain: FGMDPDLQMDIITELDLVNTTLGVTQVAGLHNASKAFLFQDVQREIHSAPHVSEKLIQLFRNKSEFTFLATVQQKPSTSGVILSIRELEHSYFELESSGPREEIRYHYIHGGKPRTEALPYRMADGQWHKVALSVSASHLLLHVDCNRIYERVIDPPETNLPPGSNLWLGQRNQKHGFFKGIIQDGKIIFMPNGFITQCPNLNRTCPTCSDFLSLVQGIMDLQELLAKMTAKLNYAETRLGQLENCHCEKTCQVSGLLYRDQDSWVDGDNCRNCTCKSGAVECRRMSCPPLNCSPDSLPVHISGQCCKVCRPKCIYGGKVLAEGQRILTKTCRECRGGVLVKITEACPPLNCSEKDHILPENQCCRVCRGHNFCAEAPKCGENSECKNWNTKATCECKNGYISVQGNSAYCEDIDECAAKMHYCHANTVCVNLPGLYRCDCIPGYIRVDDFSCTEHDDCGSGQHNCDKNAICTNTVQGHSCTCQPGYVGNGTVCKAFCEEGCRYGGTCVAPNKCVCPSGFTGSHCEKDIDECAEGFVECHNHSRCVNLPGWYHCECRSGFHDDGTYSLSGESCIDIDECALRTHTCWNDSACINLAGGFDCLCPSGPSCSGDCPHEGGLKHNGQVWILREDRCSVCSCKDGKIFCRRTACDCQNPNVDLFCCPECDTRVTSQCLDQSGQKLYRSGDNWTHSCQQCRCLEGEADCWPLACPSLSCEYTAIFEGECCPRCVSDPCLADNIAYDIRKTCLDSSGISRLSGAVWTMAGSPCTTCQCKNGRVCCSVDLVCLENN
notes: NELL1, mouse; the methods say that mature domains were cloned into pAcGP67A; Trimer by MALS; also called mNELL1; source: High Five cells (baculovirus), secreted, purified (Ni-NTA, SEC)
[1]
  stoichiometry N: 3

B3: hNELL2 EGF1-3 (domain or fragment, human, UniProt Q99435 397-523, looked up)
chain: GYDFCSERHNCMENSICRNLNDRAVCSCRDGFRALREDNAYCEDIDECAEGRHYCRENTMCVNTPGSFMCICKTGYIRIDDYSCTEHDECITNQHNCDENALCFNTVGGHNCVCKPGYTGNGTTCKA
notes: human NELL2, EGF domains 1-3, G397-A523; also called NELL2EGF1-3 (Polyhedrin, human); source: High Five cells (baculovirus), purified (Ni-NTA, SEC)
[2]
  Kd: 790 nM
[3]
  Kd: 250 nM

B4: hNELL2 (full length) (ligand, human, UniProt Q99435 22-816, looked up)
chain: LGVDPSLQIDVLTELELGESTTGVRQVPGLHNGTKAFLFQDTPRSIKASTATAEQFFQKLRNKHEFTILVTLKQTHLNSGVILSIHHLDHRYLELESSGHRNEVRLHYRSGSHRPHTEVFPYILADDKWHKLSLAISASHLILHIDCNKIYERVVEKPSTDLPLGTTFWLGQRNNAHGYFKGIMQDVQLLVMPQGFIAQCPDLNRTCPTCNDFHGLVQKIMELQDILAKTSAKLSRAEQRMNRLDQCYCERTCTMKGTTYREFESWIDGCKNCTCLNGTIQCETLICPNPDCPLKSALAYVDGKCCKECKSICQFQGRTYFEGERNTVYSSSGVCVLYECKDQTMKLVESSGCPALDCPESHQITLSHSCCKVCKGYDFCSERHNCMENSICRNLNDRAVCSCRDGFRALREDNAYCEDIDECAEGRHYCRENTMCVNTPGSFMCICKTGYIRIDDYSCTEHDECITNQHNCDENALCFNTVGGHNCVCKPGYTGNGTTCKAFCKDGCRNGGACIAANVCACPQGFTGPSCETDIDECSDGFVQCDSRANCINLPGWYHCECRDGYHDNGMFSPSGESCEDIDECGTGRHSCANDTICFNLDGGYDCRCPHGKNCTGDCIHDGKVKHNGQIWVLENDRCSVCSCQNGFVMCRRMVCDCENPTVDLFCCPECDPRLSSQCLHQNGETLYNSGDTWVQNCQQCRCLQGEVDCWPLPCPDVECEFSILPENECCPRCVTDPCQADTIRNDITKTCLDEMNVVRFTGSSWIKHGTECTLCQCKNGHICCSVDPQCLQEL
notes: human NELL2, L22-L816; trimer by SAXS; also called NELL2FL (Polyhedrin, human); source: High Five cells (baculovirus), purified (Ni-NTA, SEC)
[4]
  stoichiometry N: 3

B5: full-length human NELL2 (ligand, UniProt Q99435 22-816, looked up)
chain: LGVDPSLQIDVLTELELGESTTGVRQVPGLHNGTKAFLFQDTPRSIKASTATAEQFFQKLRNKHEFTILVTLKQTHLNSGVILSIHHLDHRYLELESSGHRNEVRLHYRSGSHRPHTEVFPYILADDKWHKLSLAISASHLILHIDCNKIYERVVEKPSTDLPLGTTFWLGQRNNAHGYFKGIMQDVQLLVMPQGFIAQCPDLNRTCPTCNDFHGLVQKIMELQDILAKTSAKLSRAEQRMNRLDQCYCERTCTMKGTTYREFESWIDGCKNCTCLNGTIQCETLICPNPDCPLKSALAYVDGKCCKECKSICQFQGRTYFEGERNTVYSSSGVCVLYECKDQTMKLVESSGCPALDCPESHQITLSHSCCKVCKGYDFCSERHNCMENSICRNLNDRAVCSCRDGFRALREDNAYCEDIDECAEGRHYCRENTMCVNTPGSFMCICKTGYIRIDDYSCTEHDECITNQHNCDENALCFNTVGGHNCVCKPGYTGNGTTCKAFCKDGCRNGGACIAANVCACPQGFTGPSCETDIDECSDGFVQCDSRANCINLPGWYHCECRDGYHDNGMFSPSGESCEDIDECGTGRHSCANDTICFNLDGGYDCRCPHGKNCTGDCIHDGKVKHNGQIWVLENDRCSVCSCQNGFVMCRRMVCDCENPTVDLFCCPECDPRLSSQCLHQNGETLYNSGDTWVQNCQQCRCLQGEVDCWPLPCPDVECEFSILPENECCPRCVTDPCQADTIRNDITKTCLDEMNVVRFTGSSWIKHGTECTLCQCKNGHICCSVDPQCLQEL
notes: NELL2, human; called full-length; the methods say that mature domains were cloned into pAcGP67A; Trimer by MALS and SAXS; also called hNELL2; full-length hNELL2; source: High Five cells (baculovirus), secreted, purified (Ni-NTA, SEC)
[1]
  stoichiometry N: 3

B6: mRobo1 ectodomain (domain or fragment, mouse, UniProt O89026 30-840, looked up)
chain: RIVEHPSDLIVSKGEPATLNCKAEGRPTPTIEWYKGGERVETDKDDPRSHRMLLPSGSLFFLRIVHGRKSRPDEGVYICVARNYLGEAVSHNASLEVAILRDDFRQNPSDVMVAVGEPAVMECQPPRGHPEPTISWKKDGSPLDDKDERITIRGGKLMITYTRKSDAGKYVCVGTNMVGERESEVAELTVLERPSFVKRPSNLAVTVDDSAEFKCEARGDPVPTVRWRKDDGELPKSRYEIRDDHTLKIRKVTAGDMGSYTCVAENMVGKAEASATLTVQEPPHFVVKPRDQVVALGRTVTFQCEATGNPQPAIFWRREGSQNLLFSYQPPQSSSRFSVSQTGDLTITNVQRSDVGYYICQTLNVAGSIITKAYLEVTDVIADRPPPVIRQGPVNQTVAVDGTLILSCVATGSPAPTILWRKDGVLVSTQDSRIKQLESGVLQIRYAKLGDTGRYTCTASTPSGEATWSAYIEVQEFGVPVQPPRPTDPNLIPSAPSKPEVTDVSKNTVTLSWQPNLNSGATPTSYIIEAFSHASGSSWQTAAENVKTETFAIKGLKPNAIYLFLVRAANAYGISDPSQISDPVKTQDVPPTSQGVDHKQVQRELGNVVLHLHNPTILSSSSVEVHWTVDQQSQYIQGYKILYRPSGASHGESEWLVFEVRTPTKNSVVIPDLRKGVNYEIKARPFFNEFQGADSEIKFAKTLEEAPSAPPRSVTVSKNDGNGTAILVTWQPPPEDTQNGMVQEYKVWCLGNETKYHINKTVDGSTFSVVIPSLVPGIRYSVEVAASTGAGPGVKSEPQFIQLDSHGNPVS
notes: mouse Robo1, extracellular domain, R30-S840; C-terminal Avi and His; also called mRobo1 ECD; Robo1ECD; source: High Five cells (baculovirus), purified (Ni-NTA, SEC)
[5]
  stoichiometry N: 2

B7: mNELL2 EGF1-6 L498A/F500A (domain or fragment)
chain: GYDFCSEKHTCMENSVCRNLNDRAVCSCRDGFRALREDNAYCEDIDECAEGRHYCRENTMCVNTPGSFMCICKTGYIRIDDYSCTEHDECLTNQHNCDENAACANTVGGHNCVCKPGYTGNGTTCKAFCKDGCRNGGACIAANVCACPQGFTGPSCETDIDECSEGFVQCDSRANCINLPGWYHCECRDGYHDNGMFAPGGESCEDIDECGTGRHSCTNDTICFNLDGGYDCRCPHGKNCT
mRobo3 FN1-3
  Kd: ≥ 100 µM

B8: hNELL2 EGF1-6 (His-tagged) (domain or fragment)
chain: not shown
notes: human NELL2, EGF domains 1-6, G397-T637; also called NELL2EGF1-6 (Polyhedrin, human); source: High Five cells (baculovirus), purified (Ni-NTA, SEC)
[6]
  Kd: 579 nM

Reference: article PMC7083938, “NELL2-Robo3 complex structure reveals mechanisms of receptor activation for axon guidance” (Nature Communications, 2020)
